Eight variants from IntAct's records for PubMed 36931259 can be followed below.

B1: 14-3-3 protein sigma (Homo sapiens), P31947 (parent)
chain: MERASLIQKAKLAEQAERYEDMAAFMKGAVEKGEELSCEERNLLSVAYKNVVGGQRAAWRVLSSIEQKSNEEGSEEKGPEVREYREKVETELQGVCDTVLGLLDSHLIKEAGDAESRVFYLKMKGDYYRYLAEVATGDDKKRIIDSARSAYQEAMDISKKEMPPTNPIRLGLALNFSVFHYEIANSPEEAISLAKTTFDEAMADLHTLSEDSYKDSTLIMQLLRDNLTLWTADNAGEEGGEAPQEPQS
partner: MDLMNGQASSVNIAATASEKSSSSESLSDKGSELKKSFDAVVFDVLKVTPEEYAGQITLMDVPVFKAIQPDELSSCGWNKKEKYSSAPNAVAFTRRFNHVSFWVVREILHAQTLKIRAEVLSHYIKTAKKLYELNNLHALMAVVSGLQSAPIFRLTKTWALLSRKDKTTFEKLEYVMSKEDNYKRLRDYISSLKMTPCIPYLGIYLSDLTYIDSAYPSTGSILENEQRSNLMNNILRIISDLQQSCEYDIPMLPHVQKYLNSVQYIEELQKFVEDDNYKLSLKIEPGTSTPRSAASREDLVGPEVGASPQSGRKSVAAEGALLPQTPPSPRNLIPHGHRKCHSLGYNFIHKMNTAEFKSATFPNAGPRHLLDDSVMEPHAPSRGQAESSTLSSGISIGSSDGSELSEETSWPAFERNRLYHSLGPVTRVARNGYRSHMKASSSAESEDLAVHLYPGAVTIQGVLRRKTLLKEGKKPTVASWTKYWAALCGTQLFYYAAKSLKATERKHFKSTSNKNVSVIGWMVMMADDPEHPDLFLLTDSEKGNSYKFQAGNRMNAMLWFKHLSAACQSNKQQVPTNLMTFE
B2: 14-3-3 protein sigma (Homo sapiens), P31947 (parent)
chain: B1 chain
partner: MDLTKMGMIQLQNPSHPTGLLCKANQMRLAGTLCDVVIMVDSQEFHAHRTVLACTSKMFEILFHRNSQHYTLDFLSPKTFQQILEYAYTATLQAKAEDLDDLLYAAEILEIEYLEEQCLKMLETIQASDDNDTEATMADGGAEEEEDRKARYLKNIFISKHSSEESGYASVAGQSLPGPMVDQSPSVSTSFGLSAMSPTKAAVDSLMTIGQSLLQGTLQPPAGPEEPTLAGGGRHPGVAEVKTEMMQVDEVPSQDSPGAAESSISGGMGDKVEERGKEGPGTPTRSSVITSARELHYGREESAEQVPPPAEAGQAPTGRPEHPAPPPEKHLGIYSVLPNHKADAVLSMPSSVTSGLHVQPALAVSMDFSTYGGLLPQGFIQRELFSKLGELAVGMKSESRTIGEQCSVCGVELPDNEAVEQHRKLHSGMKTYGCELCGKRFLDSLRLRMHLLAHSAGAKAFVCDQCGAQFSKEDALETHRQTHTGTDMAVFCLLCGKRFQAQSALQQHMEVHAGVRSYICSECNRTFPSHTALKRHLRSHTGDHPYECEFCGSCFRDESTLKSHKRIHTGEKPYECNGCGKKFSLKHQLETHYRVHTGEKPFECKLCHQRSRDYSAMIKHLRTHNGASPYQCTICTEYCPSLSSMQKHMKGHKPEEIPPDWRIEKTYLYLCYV
B3: 14-3-3 protein sigma (Homo sapiens), P31947 (parent)
chain: B1 chain
partner: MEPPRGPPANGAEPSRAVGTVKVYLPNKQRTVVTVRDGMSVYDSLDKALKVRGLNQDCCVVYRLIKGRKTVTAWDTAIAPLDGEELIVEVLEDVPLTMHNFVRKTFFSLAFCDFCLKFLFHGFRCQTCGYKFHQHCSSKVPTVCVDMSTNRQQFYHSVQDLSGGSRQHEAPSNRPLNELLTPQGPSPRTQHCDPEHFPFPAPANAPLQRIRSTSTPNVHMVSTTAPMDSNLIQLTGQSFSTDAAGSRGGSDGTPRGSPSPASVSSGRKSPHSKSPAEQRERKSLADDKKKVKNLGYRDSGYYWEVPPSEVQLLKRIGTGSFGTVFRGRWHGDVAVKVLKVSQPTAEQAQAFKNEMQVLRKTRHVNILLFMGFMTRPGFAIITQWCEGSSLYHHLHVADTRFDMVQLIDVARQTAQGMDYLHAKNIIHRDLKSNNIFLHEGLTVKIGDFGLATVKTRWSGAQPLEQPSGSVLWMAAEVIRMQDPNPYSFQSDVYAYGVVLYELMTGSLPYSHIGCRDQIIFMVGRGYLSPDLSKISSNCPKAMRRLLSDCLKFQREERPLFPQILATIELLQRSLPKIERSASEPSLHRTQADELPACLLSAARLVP
B4: 14-3-3 protein sigma (Homo sapiens), P31947 (parent)
chain: B1 chain
partner: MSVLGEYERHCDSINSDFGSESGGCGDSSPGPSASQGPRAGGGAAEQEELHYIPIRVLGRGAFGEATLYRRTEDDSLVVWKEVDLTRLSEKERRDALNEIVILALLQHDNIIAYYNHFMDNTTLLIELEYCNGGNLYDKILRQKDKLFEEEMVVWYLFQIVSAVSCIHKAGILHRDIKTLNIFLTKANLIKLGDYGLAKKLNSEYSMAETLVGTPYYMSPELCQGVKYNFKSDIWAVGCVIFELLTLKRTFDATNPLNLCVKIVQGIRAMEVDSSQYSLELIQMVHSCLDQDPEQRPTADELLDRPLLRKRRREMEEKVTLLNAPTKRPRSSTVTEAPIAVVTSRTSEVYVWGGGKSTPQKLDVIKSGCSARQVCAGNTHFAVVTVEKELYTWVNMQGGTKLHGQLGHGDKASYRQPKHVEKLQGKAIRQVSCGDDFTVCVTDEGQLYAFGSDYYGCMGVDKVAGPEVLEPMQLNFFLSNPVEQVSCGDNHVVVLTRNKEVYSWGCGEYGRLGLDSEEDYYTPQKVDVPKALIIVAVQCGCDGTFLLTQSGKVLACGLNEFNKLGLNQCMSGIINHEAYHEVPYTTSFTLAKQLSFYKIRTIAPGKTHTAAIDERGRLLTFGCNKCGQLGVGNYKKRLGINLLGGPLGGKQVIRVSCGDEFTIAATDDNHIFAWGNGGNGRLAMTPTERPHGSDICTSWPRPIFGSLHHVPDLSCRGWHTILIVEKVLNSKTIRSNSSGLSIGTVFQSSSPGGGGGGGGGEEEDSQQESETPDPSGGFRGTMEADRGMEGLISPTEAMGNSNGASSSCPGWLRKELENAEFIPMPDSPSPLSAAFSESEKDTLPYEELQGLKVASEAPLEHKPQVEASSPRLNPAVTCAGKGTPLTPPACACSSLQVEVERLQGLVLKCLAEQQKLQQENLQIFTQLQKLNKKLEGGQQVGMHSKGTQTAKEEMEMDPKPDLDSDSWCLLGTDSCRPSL
B5: 14-3-3 protein sigma (Homo sapiens), P31947 (parent)
chain: B1 chain
partner: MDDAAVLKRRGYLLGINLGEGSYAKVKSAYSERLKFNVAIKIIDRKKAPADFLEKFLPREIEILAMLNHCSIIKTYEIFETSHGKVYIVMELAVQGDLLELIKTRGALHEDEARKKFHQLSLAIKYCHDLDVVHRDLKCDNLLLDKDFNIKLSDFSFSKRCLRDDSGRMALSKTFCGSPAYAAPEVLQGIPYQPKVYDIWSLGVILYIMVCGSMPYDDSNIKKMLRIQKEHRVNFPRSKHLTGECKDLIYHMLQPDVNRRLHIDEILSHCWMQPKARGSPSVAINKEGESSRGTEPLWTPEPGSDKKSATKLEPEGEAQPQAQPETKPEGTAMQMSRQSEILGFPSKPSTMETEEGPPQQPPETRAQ
B6: 14-3-3 protein sigma (Homo sapiens), P31947 (parent)
chain: B1 chain
partner: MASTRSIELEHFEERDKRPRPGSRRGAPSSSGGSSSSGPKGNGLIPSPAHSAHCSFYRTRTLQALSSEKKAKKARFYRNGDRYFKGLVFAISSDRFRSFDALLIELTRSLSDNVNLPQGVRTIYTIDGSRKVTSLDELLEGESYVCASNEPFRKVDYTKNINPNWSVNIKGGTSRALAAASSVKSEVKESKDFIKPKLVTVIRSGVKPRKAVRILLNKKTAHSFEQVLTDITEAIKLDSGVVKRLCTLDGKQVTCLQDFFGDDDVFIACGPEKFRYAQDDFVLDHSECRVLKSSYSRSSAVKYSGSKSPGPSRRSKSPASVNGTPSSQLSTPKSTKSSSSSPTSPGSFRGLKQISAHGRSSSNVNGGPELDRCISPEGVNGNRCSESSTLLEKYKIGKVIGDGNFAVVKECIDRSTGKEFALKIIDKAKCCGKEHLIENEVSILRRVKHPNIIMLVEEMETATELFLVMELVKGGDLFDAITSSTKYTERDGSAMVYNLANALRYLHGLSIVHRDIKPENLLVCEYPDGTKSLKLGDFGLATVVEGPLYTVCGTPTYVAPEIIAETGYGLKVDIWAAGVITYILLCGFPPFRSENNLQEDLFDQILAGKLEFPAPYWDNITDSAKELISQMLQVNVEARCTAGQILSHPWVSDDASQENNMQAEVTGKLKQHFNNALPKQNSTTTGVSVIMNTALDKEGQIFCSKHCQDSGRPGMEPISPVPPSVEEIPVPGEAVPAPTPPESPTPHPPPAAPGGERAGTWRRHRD
B7: 14-3-3 protein sigma (Homo sapiens), P31947 (parent)
chain: B1 chain
partner: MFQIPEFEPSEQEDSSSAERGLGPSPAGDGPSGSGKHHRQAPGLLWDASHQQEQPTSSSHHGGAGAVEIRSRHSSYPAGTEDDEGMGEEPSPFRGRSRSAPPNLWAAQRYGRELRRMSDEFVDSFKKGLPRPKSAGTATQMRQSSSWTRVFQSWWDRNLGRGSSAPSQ
B8: 14-3-3 protein sigma (Homo sapiens), P31947 (parent)
chain: B1 chain
partner: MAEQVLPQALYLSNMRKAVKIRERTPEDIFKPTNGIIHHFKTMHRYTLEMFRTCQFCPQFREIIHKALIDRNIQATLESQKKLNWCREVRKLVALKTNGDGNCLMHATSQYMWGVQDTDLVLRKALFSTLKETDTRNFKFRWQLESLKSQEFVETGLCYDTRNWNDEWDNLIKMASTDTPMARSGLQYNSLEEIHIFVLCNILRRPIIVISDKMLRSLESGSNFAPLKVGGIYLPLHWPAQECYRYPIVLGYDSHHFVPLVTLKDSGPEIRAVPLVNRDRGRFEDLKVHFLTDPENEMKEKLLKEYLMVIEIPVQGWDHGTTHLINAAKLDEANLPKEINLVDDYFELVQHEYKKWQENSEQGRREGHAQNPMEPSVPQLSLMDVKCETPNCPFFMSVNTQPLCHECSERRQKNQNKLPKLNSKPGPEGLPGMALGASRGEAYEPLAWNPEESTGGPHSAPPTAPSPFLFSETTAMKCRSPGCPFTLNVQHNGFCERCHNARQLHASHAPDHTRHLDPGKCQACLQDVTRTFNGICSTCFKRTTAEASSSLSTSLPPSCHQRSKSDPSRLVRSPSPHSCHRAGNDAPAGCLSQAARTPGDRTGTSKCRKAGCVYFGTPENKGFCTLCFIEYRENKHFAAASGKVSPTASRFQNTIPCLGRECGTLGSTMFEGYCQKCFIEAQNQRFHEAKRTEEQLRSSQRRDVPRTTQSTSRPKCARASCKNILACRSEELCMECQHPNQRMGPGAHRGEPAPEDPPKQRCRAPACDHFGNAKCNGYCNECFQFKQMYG

In the first test the parent is B1. As to conditions: with rgps2_human RALGPS2, Q86X27.
K49E;R56E;V178D: the “effect of a mutation on the interaction” value is on record as “decreasing interaction strength”.

In a further test the parent is B2. Conditions: with zbt16_human ZBTB16, Q05516.
With K49E;R56E;V178D, the “effect of a mutation on the interaction” value is on record as “decreasing interaction strength”.

Variants of B3 are the subject of another test. Conditions: with araf_human ARAF.
As for K49E;R56E;V178D, the “effect of a mutation on the interaction” value is given as “decreasing interaction strength”.

The variants in a further test derive from B4. As to conditions: with nek9_human NEK9, Q8TD19.
As to K49E;R56E;V178D, the “effect of a mutation on the interaction” value is listed as “decreasing interaction strength”.

In the next test the parent is B5. As to conditions: with tssk1_human TSSK1B.
K49E;R56E;V178D: the “effect of a mutation on the interaction” value was “decreasing interaction strength”.

The next test covers variants of B6. Conditions: with dclk2_human DCLK2, Q8N568.
For the variant K49E;R56E;V178D, the “effect of a mutation on the interaction” value is “decreasing interaction strength”.

The variants in another test derive from B7. Conditions: with bad_human BAD.
Regarding K49E;R56E;V178D, the “effect of a mutation on the interaction” value is reported as “decreasing interaction strength”.

In a further test the parent is B8. As to conditions: with tnap3_human TNFAIP3, P21580.
Turning to K49E;R56E;V178D, the “effect of a mutation on the interaction” value is listed as “decreasing interaction strength”.
